In patent EP4803150A2 (Lyvgen Biopharma Holdings Limited, dated 2026):

T1: CD3 (human)
T1 chain: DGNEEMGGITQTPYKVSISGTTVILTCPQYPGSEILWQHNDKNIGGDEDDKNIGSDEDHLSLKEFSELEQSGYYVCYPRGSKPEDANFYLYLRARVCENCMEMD


Columns and labels:
CD137 = biological target: T2, CD137 (human, UniProt Q07011 24-186); assay: FCM or ELISA, graded
T2 construct: Whole on GS-H2-huCD137 reporter cells in the reporter assays; also called 4-1BB

CD3 = biological target: T1, CD3; assay: CD3 binding as in Example 2 (ELISA or FCM)

Binder	binding result (CD137)	EC50 (CD3) [µg/mL]
Ly2600 (multi-specific antibody, B7H3/CD3/CD137) chain 1: QVQLVQSGAEVKKPGASVKVSCKASGYTFTSYVMHWVRQKPGQGLEWIGYINPYNEGTESTDKFKGRATMTSDKSTSTVYMELSSLRSEDTAVYYCASIYYGYEGTYFGVWGQGTLVTVSSASTKGPSVFPLAPSSKSTSGGTAALGCLVKDYFPEPVTVSWNSGALTSGVHTFPAVLQSSGLYSLSSVVTVPSSSLGTQTYICNVNHKPSNTKVDKKVEPKSCGGGGSGGGGSGGGGSGGGGSEVQLVESGGGLVQPGGSLRLSCAASGFTFSTYAMNWVRQAPGKGLEWVGRIRSKYNNYATYYADSVKGRFTISRDDSKNSLYLQMNSLKTEDTAVYYCVRHGNFGNSYVSWFAYWGQGTLVTVSSGGGGSDKTHTCPPCPAPELLGPSVFLFPPKPKDTLMISRTPEVTCVVVDVSHEDPEVKFNWYVDGVEVHNAKTKPREEQYNSTYRVVSVLTVLHQDWLNGKEYKCKVSNKALGAPIEKTISKAKGQPREPQVYTLPPSREEMTKNQVSLWCLVKGFYPSDIAVEWESNGQPENNYKTTPPVLDSDGSFFLYSKLTVDKSRWQQGNVFSCSVMHEALHNHYTQKSLSLSPGGGGGSGGGGSGGGGSGGGGSQVQLVQSGAEVKKPGASVKVSCKASGYTFAGFEMHWVRQAPGQGLEWMGAIDPKTGGTDYNQKFKDRVTMTRDTSISTAYMELSRLRSDDTAVYYCARDLGYFDVWGQGTLVTVSS chain 2: QVQLVQSGAEVKKPGASVKVSCKASGYTFTSYVMHWVRQKPGQGLEWIGYINPYNEGTESTDKFKGRATMTSDKSTSTVYMELSSLRSEDTAVYYCASIYYGYEGTYFGVWGQGTLVTVSSASTKGPSVFPLAPSSKSTSGGTAALGCLVKDYFPEPVTVSWNSGALTSGVHTFPAVLQSSGLYSLSSVVTVPSSSLGTQTYICNVNHKPSNTKVDKKVEPKSCGGGGSGGGGSGGGGSGGGGSQAVVTQEPSLTVSPGGTVTLTCRSSTGAVTTSNYANWVQQKPGQAPRGLIGGTNKRAPWTPARFSGSLLGGKAALTITGAQAEDEADYYCALWYSNLWVFGGGTKLTVLGGGGSDKTHTCPPCPAPELLGPSVFLFPPKPKDTLMISRTPEVTCVVVDVSHEDPEVKFNWYVDGVEVHNAKTKPREEQYNSTYRVVSVLTVLHQDWLNGKEYKCKVSNKALGAPIEKTISKAKGQPREPQVYTLPPSREEMTKNQVSLSCAVKGFYPSDIAVEWESNGQPENNYKTTPPVLDSDGSFFLVSKLTVDKSRWQQGNVFSCSVMHEALHNHYTQKSLSLSPGGGGGSGGGGSGGGGSGGGGSDIQMTQSPSSLSASVGDRVTITCRASQDIRSNLNWYQQKPGGAVKLLIYYTSRLHSGVPSRFSGSGSGTDYTLTISSLQPEDFATYFCQQSEKLPRTFGGGTKVEIR chain 3: EIVLTQSPATLSLSPGERATLSCRASSSVSYMHWYQQKPGQAPRPWIYATSNLASGIPARFSGSRSGTDYTLTISSLEPEDFAVYYCQQWSSNTLTFGGGTKVEIKRTVAAPSVFIFPPSDEQLKSGTASVVCLLNNFYPREAKVQWKVDNALQSGNSQESVTEQDSKDSTYSLSSTLTLSKADYEKHKVYACEVTHQGLSSPVTKSFNRGEC	binds	–
Ly1966 (multi-specific antibody, CD19/CD3/CD137) chain 1: QVQLQQSGAELVRPGSSVKISCKASGYAFSSYWMNWVKQRPGQGLEWIGQIWPGDGDTNYNGKFKGKATLTADESSSTAYMQLSSLASEDSAVYFCARRETTTVGRYYYAMDYWGQGTTVTVSSASTKGPSVFPLAPSSKSTSGGTAALGCLVKDYFPEPVTVSWNSGALTSGVHTFPAVLQSSGLYSLSSVVTVPSSSLGTQTYICNVNHKPSNTKVDKKVEPKSCGGGGSGGGGSGGGGSGGGGSEVQLVESGGGLVQPGGSLRLSCAASGFTFSTYAMNWVRQAPGKGLEWVGRIRSKYNNYATYYADSVKGRFTISRDDSKNSLYLQMNSLKTEDTAVYYCVRHGNFGNSYVSWFAYWGQGTLVTVSSGGGGSDKTHTCPPCPAPEAAGPSVFLFPPKPKDTLMISRTPEVTCVVVDVSHEDPEVKFNWYVDGVEVHNAKTKPREEQYNSTYRVVSVLTVLHQDWLNGKEYKCKVSNKALPAPIEKTISKAKGQPREPQVYTLPPSREEMTKNQVSLWCLVKGFYPSDIAVEWESNGQPENNYKTTPPVLDSDGSFFLYSKLTVDKSRWQQGNVFSCSVMHEALHNHYTQKSLSLSPGGGGGSGGGGSGGGGSGGGGSQVQLVQSGAEVKKPGASVKVSCKASGYTFAGFEMHWVRQAPGQGLEWMGAIDPKTGGTDYNQKFKDRVTMTRDTSISTAYMELSRLRSDDTAVYYCARDLGYFDVWGQGTLVTVSS chain 2: QVQLQQSGAELVRPGSSVKISCKASGYAFSSYWMNWVKQRPGQGLEWIGQIWPGDGDTNYNGKFKGKATLTADESSSTAYMQLSSLASEDSAVYFCARRETTTVGRYYYAMDYWGQGTTVTVSSASTKGPSVFPLAPSSKSTSGGTAALGCLVKDYFPEPVTVSWNSGALTSGVHTFPAVLQSSGLYSLSSVVTVPSSSLGTQTYICNVNHKPSNTKVDKKVEPKSCGGGGSGGGGSGGGGSGGGGSQAVVTQEPSLTVSPGGTVTLTCRSSTGAVTTSNYANWVQQKPGQAPRGLIGGTNKRAPWTPARFSGSLLGGKAALTITGAQAEDEADYYCALWYSNLWVFGGGTKLTVLGGGGSDKTHTCPPCPAPEAAGPSVFLFPPKPKDTLMISRTPEVTCVVVDVSHEDPEVKFNWYVDGVEVHNAKTKPREEQYNSTYRVVSVLTVLHQDWLNGKEYKCKVSNKALPAPIEKTISKAKGQPREPQVYTLPPSREEMTKNQVSLSCAVKGFYPSDIAVEWESNGQPENNYKTTPPVLDSDGSFFLVSKLTVDKSRWQQGNVFSCSVMHEALHNRFTQKSLSLSPGGGGGSGGGGSGGGGSGGGGSDIQMTQSPSSLSASVGDRVTITCRASQDIRSNLNWYQQKPGGAVKLLIYYTSRLHSGVPSRFSGSGSGTDYTLTISSLQPEDFATYFCQQSEKLPRTFGGGTKVEIR chain 3: not shown	–	0.348
Ly1967 (multi-specific antibody, CD19/CD3/CD137) chain 1: QVQLQQSGAELVRPGSSVKISCKASGYAFSSYWMNWVKQRPGQGLEWIGQIWPGDGDTNYNGKFKGKATLTADESSSTAYMQLSSLASEDSAVYFCARRETTTVGRYYYAMDYWGQGTTVTVSSASTKGPSVFPLAPSSKSTSGGTAALGCLVKDYFPEPVTVSWNSGALTSGVHTFPAVLQSSGLYSLSSVVTVPSSSLGTQTYICNVNHKPSNTKVDKKVEPKSCGGGGSGGGGSGGGGSGGGGSEVQLVESGGGLVQPGGSLRLSCAASGFTFSTYAMNWVRQAPGKGLEWVGRIRSKYNNYATYYADSVKGRFTISRDDSKNSLYLQMNSLKTEDTAVYYCVRHGNFGNSYVSWFAYWGQGTLVTVSSGGGGSDKTHTCPPCPAPEAAGPSVFLFPPKPKDTLMISRTPEVTCVVVDVSHEDPEVKFNWYVDGVEVHNAKTKPREEQYNSTYRVVSVLTVLHQDWLNGKEYKCKVSNKALPAPIEKTISKAKGQPREPQVYTLPPSREEMTKNQVSLWCLVKGFYPSDIAVEWESNGQPENNYKTTPPVLDSDGSFFLYSKLTVDKSRWQQGNVFSCSVMHEALHNHYTQKSLSLSPGGGGGSGGGGSGGGGSGGGGSQVQLVQSGAEVKKPGASVKVSCKASGYTFAGFEMHWVRQAPGQGLEWMGAIDPKTGGTDYNQKFKDRVTMTRDTSISTAYMELSRLRSDDTAVYYCARDLGYFDVWGQGTLVTVSS chain 2: QVQLQQSGAELVRPGSSVKISCKASGYAFSSYWMNWVKQRPGQGLEWIGQIWPGDGDTNYNGKFKGKATLTADESSSTAYMQLSSLASEDSAVYFCARRETTTVGRYYYAMDYWGQGTTVTVSSASTKGPSVFPLAPSSKSTSGGTAALGCLVKDYFPEPVTVSWNSGALTSGVHTFPAVLQSSGLYSLSSVVTVPSSSLGTQTYICNVNHKPSNTKVDKKVEPKSCGGGGSGGGGSGGGGSGGGGSQAVVTQEPSLTVSPGGTVTLTCRSSTGAVTTSNYANWVQQKPGQAPRGLIGGTNKRAPWTPARFSGSLLGGKAALTITGAQAEDEADYYCALWYSNLWVFGGGTKLTVLGGGGSDKTHTCPPCPAPEAAGPSVFLFPPKPKDTLMISRTPEVTCVVVDVSHEDPEVKFNWYVDGVEVHNAKTKPREEQYNSTYRVVSVLTVLHQDWLNGKEYKCKVSNKALPAPIEKTISKAKGQPREPQVYTLPPSREEMTKNQVSLSCAVKGFYPSDIAVEWESNGQPENNYKTTPPVLDSDGSFFLVSKLTVDKSRWQQGNVFSCSVMHEALHNHYTQKSLSLSPGGGGGSGGGGSGGGGSGGGGSDIQMTQSPSSLSASVGDRVTITCRASQDIRSNLNWYQQKPGGAVKLLIYYTSRLHSGVPSRFSGSGSGTDYTLTISSLQPEDFATYFCQQSEKLPRTFGGGTKVEIR chain 3: not shown	–	1.56
